# From US10023615B2, “Efficient transport into white blood cells” (priority 2008, dated 2018)
# Entries after “also recorded” stand apart in the source; their conditions may differ. Ends that are not written are not given here.
# Legend:
# [1] = test system: leucocytes (cd11b positive cells) in inflamed hind paw; assay: Immunohistochemistry and CD11b staining on paw from CFA-induced inflammation (4 h); format: in vivo, C57/Bl6 mice; details: 10 μg/kg i.v. one hour prior to CFA; 4 h after CFA
# Description: FIG. 19A, FIG. 19B, and FIG. 19C: Immunohistochemistry staining on paw from CFA-induced inflammation (4 h). Upper panels represent the Hematoxylin and Eosin (H&E) staining of hindpays. From left to right: a saline-treated animal which was not treated with CFA (Complete Freund's Adjuvant), a saline-treated animal which received CFA and a XG-102-(SEQ ID NO: 233) treated animal which also received a CFA injection. After CFA treatment, muscular and epithelial layers appear to be less organized due to edema. The presence of XG-102 (SEQ ID NO:233) positive cells was detected only in animal treated with XG-102 (upper right panel). […] 19A: Magnification ×20; 19B: Magnification ×40; 19C: Magnification ×100.
# FIG. 20A represents the hind paw section of a CFA treated animal stained with three different dyes. The four upper panels represent the same portion at high magnification of a distal region. Distribution of the leucocyte marker (mainly granulocytes, macrophages and monocytes) cd11b (first from left) and XG-102 (SEQ ID NO: 233, second from left) as well as the Dapi nuclear stain (3rd from left) are indicated. The upper right panel represents the merge image of cd11b and XG-102 positive stain. […]
# liver, Kupffer cells = assay: Immunostaining against XG-102 in the liver after i.v. injection; format: in vivo, rat; details: 1 mg/kg i.v., 24 hours
# Source text: Revelation was done using DAB substrate.
# [2] = test system: bleomycin induced lung fibrosis; assay: Bleomycin (BLM) induced lung fibrosis; format: in vivo, C57BL/6 mice; details: for cell recruitment in bronchoalveolar lavage space: 3 times in 10 days
# Source text: In order to determine the activity of the exemplary all-D retro-inverso IB(s) peptide XG-102 (SEQ ID NO: 233) in the treatment of Chronic Obstructive Pulmonary Disease (COPD) XG-102 (SEQ ID NO: 233) is used in an animal model of Bleomycin induced acute lung inflammation and fibrosis. The protocol of bleomycin induced inflammation and fibrosis has been described before in the literature. The aim of the Experiment was to investigate the effect of XG-102 (SEQ ID NO: 233) by subcutaneous (s.c.) route on neutrophil recruitment in broncho alveolar lavage (BAL) and lung in bleomycin induced inflammation and fibrosis: • at 1 day after a single bleomycin administration (10 mg/kg) • and at day 10 with the development of fibrosis
# 1) Method and Experimental Approach • The test compound XG-102 (SEQ ID NO: 233) at two doses and vehicle control were given s.c. with a single intranasal administration of bleomycin and mice were analyzed after 1 and 10 days. The animals used in the model were 10 C57BL/6 mice (8 weeks old) per group. The experimental groups included vehicle, 0.001 mg/kg XG-102 (SEQ ID NO: 233) and 0.1 mg/kg XG-102 (SEQ ID NO: 233), and the treatment consisted of repeated sub-cutaneous administration of XG-102 (SEQ ID NO: 233), prior to bleomycin administration then every 3 days. Acute lung inflammation at 24 h was monitored by BAL lavage, cytology, cell counts, and lung myeloperoxidase activity. The effect of the compound was compared with vehicle controls. Lung fibrosis was assessed histologically using hematoxylin and eosin staining at day 10 after the single dose of bleomycin.
# 1.1) Bleomycin Administration • Bleomycin sulfate in saline (10 mg/kg body weight) from Bellon Laboratories (Montrouge, France) or saline were given through the airways by nasal instillation in a volume of 40 μL under light ketamine-xylasine anesthesia. […]
# 1.4) Cell Count and Determination • Total cell count was determined in BAL fluid using a Malassez hemocytometer. […]
substance,measurement,setting,value
dqsrpvqpflnIttprkprpprrrqrrkkrg (DQSRPVQPFLNLTTPRKPRPPRRRQRRKKRG; not fully specified (some residues); printed as dqsrpvqpflnIttprkprpprrrqrrkkrg) [XG-102],co-localization with cd11b positive leucocytes,[1],co-localizes with a certain leucocyte population
same,presence in leucocytes of inflamed paw (HRP staining),[1],presence of XG-102 in infiltrating leucocytes
same,accumulation in liver,"liver, Kupffer cells","pronounced accumulation of XG-102 in the liver, and especially, in the Kupffer cells"
same,cell recruitment in bronchoalveolar lavage space,[2]; 0.001 mg/kg s.c.,reduced significantly the lymphocyte recruitment and the number of total cells recruited; also recorded: decreases the Bleomycin-induced later inflammation
same,"histology: inflammatory cells accumulation, fibrotic areas, loss of lung architecture","[2]; 0.001 mg/kg, day 10",A decrease of these parameters was observed; also recorded: attenuates the Bleomycin-induced fibrosis
same,cell recruitment in bronchoalveolar lavage space,[2]; 0.1 mg/kg s.c.,had no effect
